Source: publication doi:10.1101/2025.02.04.636384 (bioRxiv, 2025)

Target: the molecule itself
Test: SEC

B1: Aeropyrum pernix Kv (KvAP) channel, wild type (natural protein, UniProt Q9YDF8 1-295, looked up)
chain: MSVERWVFPGCSVMARFRRGLSDLGGRVRNIGDVMEHPLVELGVSYAALLSVIVVVVEYTMQLSGEYLVRLYLVDLILVIILWADYAYRAYKSGDPAGYVKKTLYEIPALVPAGLLALIEGHLAGLGLFRLVRLLRFLRILLIISRGSKFLSAIADAADKIRFYHLFGAVMLTVLYGAFAIYIVEYPDPNSSIKSVFDALWWAVVTATTVGYGDVVPATPIGKVIGIAVMLTGISALTLLIGTVSNMFQKILVGEPEPSCSPAKLAEMVSSMSEEEFEEFVRTLKNLRRLENSMK
- stoichiometry N: 4
